Experimental findings from the NTF2 design screens of Basanta et al. (2020) are described below.

This data set in a line: protease stability score; higher = more stable; yeast display proteolysis, trypsin and chymotrypsin.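 Further: relative to predicted unfolded state with 0 unfolded-like and 1 meaning tenfold more protease.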
Regarding “TEDEKLVEIALELWLRSLRTGDEDMFRELFDPNTRIFVNGVDHHGRHALEIVKERYDHVRDFHIELRSVHYVNGVLHVDGHFRMDIKYGDKRRIIENRTIMIIEKINGRWIFKHERLE”, the protease stability score amounted to 1.24.

Sequence “TEDEKMAEDLLKLILEAMETGDERIFRHLVDPNVRVSQGEKQLHGREAVEEMLKHLRLHRVRIRDVHVVGDKIIVQGEIHGEIGDFRFESHIIVYIHKFNGQWRHKSIEIK” gave a protease stability score of 1.42.

In turn, “TEDEKMLKESLERLLYTLHTGDEEFNKRLMDPEVRIVIGDKELHGMELARKFWEKLYKDLGADHVHMDVKHVRSIGDKVEVDSQLIFRVGDKEIRVDTKLFSHKFDGRWRLRYEYVD” yielded a protease stability score of 1.39.

As for “TEDEKRYDDLVRHMLEVHRTGDEDLLERLLDPNARFLIDGVEYHGREQALEIARELRITSIRIRRIEFYGDKVTMDTEIDGRVNGRRRDTRVKEIWLKVDGKWYLESMEIH”, the protease stability score was 1.43.

As to “TEDEKTAKHAKELLEHSIRTGDERLMERLLDPHALLIFDGRHIHGREDISRWYREIRIHHIHDENSEIQGDKLHLHMRIDGEYDGKRHELRVHWHSEKVNGRWSIRQVVLH”, the protease stability score came to 1.44.

Sequence “TEDEKVMKEAVEIQIHMFRTGNWDSLHKLVDPNARLDVDGREFHGREDFVRFIKKEAHEARVEDVIFRHVTTQGDKIVTHFDVRGVINGVEEIRKVTVFLRKINGRWLIESEEID” had a protease stability score of 0.737.

For “TEDEKVNDLAMEEIYTLMLTGDEERMEELFDPNVRMIIDGRRHVGREVFKDHMREWRWERTHVEDQRTFDGRAILHTRVDVTVGDKRRDVRIHIISSKINGRWVIKRIIIE”, the protease stability score worked out at 0.758.

“TEDERDAKRMAETMVKLWETGDWRTLFELADPDMRFEYGDKRFHGREKLIKVLRDIFERLGIDHSHVRDFKIIFVGEKVEVRLDIETHFDGRTEEFHIEINVRKIDGRWRLKSMHIEIR” displayed a protease stability score of 2.02.

In the case of “TEDERDFREFWERWLHNTVTGDEELLSRMMDPHAKLHVGDKENVGMEEAARLFVEISDELRLHSFHIRHEEHQGDKVILHTRMNVRINGKEINFRTVMIVRKIDGRWIIRSFQID”, the protease stability score was 0.713.

In turn, “TEDERDMHEAMERHLQDLRTGNWEDVHRQVDPNVRLVFNGKEVHGREEYVEHTVRLAERADHIELRIRHIDTQGDKLRVEGELIIRQGDKTFIHEVELLFLKVNGRWIIHSFEIK” had a protease stability score of 1.55.

“TEDERDMQEFYERLIHAIHTGDWREIRRQFDPNVLLNFNGKEIHGREQALRLMRELLHRADVIDDTKTKDLKFYNGRVELHIHEQGQINGQHFRSDVMLIVEKVNGRWYMKSYQID” displayed a protease stability score of 1.37.

“TEDERDVVKLLHLVSKLWLTGDEHILEHLADPSVRSDFDGVRLHGRRLLSYFLSELRIHHVEVRDVRVEYQGDKLIARSDTEVDLEIDGQRHRMDTRMILISRKWDGRWLIESISFEIQ” gave a protease stability score of 2.04.

Sequence “TEDERHLEESIELFHEVHRTGDEEQLHRMLDPSVRVDVNGRILHGREIVVEWLRRTLEKFKNVQIEFILKDRDHINGVLRIHGVLLVNVGDKHTIIDTIIVAHKVNGRWLIHSMHVK” displayed a protease stability score of 2.15.

In turn, “TEDERILKELAHLLLLLWKTGDENIWRELADPNVRVIFLIGDKEEHHHGRDMFIKLRHDYGVDHMELRRVDVQGDKVRFEGDLWVDGRIHRVHINFSVINGKVHQIKIDFS” showed a protease stability score of 2.49.

“TEDERLFHETLKIFEHAVQTGDEEELERMLDPNVRSTINGVRLHGRESFRKLFHIIWREIRFESVDVKRIHIQGDKMIWFTRIDGIFNGQRDLREVTIFADKIDGRWIFKEVDVR” came in with a protease stability score of 2.1.

For the sequence “TEDERMNKEFHRLIWELIDTGDEETLRKLADPNTRLEVNGKTIIGREEFLSIWKHELHMLGVKHLEIHIRSVMFFENRVENDVELVLHIGEYEERRRIHIFLIKINGKWYHKSERIR”, the protease stability score came to 1.46.

“TEDERMVSEHLKQWLHSLRTGDEDTIQRLFDPHTRIIFEGHEFIGMEDMEEWLTKFHEEARSHKLIIKRIHIIGDKVHVEGVLDGEYNGRRHELKVIIIALKINGRWVMHQIEIR” gave a protease stability score of 1.97.

Sequence “TEDETIAELALEEFIRILETGDEDDVNRLLDPHVRVDIDGKEIHGREHVYHHLRNLGVRIKIEWKRIRVVDGKVDSDGHVIERFNGRDIEVKSQFIMRKIDGRWVVHHFTRR” displayed a protease stability score of 0.488.

Regarding “TEDHEDLRRFWEYFEEAFRTGDWKALSDLADPNVKIRIGDKLHVGRDDYYEFLRELIERVDHMELRLKRVHLVGDKLHVDSTLDLHVNGKRIHSRSRFTFTKVDGKWKVESVHYE”, the protease stability score was 1.61.

“TEDHEIVEDALRLWWTSVHTGDETLMSRLADPDVRLIVGDKHFHGREKFTRTMKELDDEMRFHHLEIKEFELFDGRIKINVRLRGTIGDKHTIFEVNVINLKVNGKWLLKSLEVR” came in with a protease stability score of 1.1.

Turning to “TEDHERIKKHIEILMHNLKTGNFEALVRMADPHVRFRLVQGNFHDETHGRDAWREVLERLGIDHIEIRDIRIHLYDGRLEMRIDGISRFNGREHKVELIIIIDKIDGRWRISEVELRIE”, the protease stability score was determined as 2.15.

As for “TEDHRDIYRIVKLLIEFFKTGDFDSLRHLADPNTRLDIGDKHRHGMDLILKEYMDEMHELGVKHFDIKIHDVEIQGDKAQWDLRLHIKVGDKIIELRVILHAVKVNGKWILHKIEFI”, the protease stability score stood at 1.38.

In turn, “TEDIEHMIKVVEIFLRAVTTGNEDEMKYLMDPRMRLVVGDKIHHGWEEIWKFLEHIREERDKVHTKDTKVYNGRMDINSRVSSTIHFNGVRIEIDHEVHFHIKKINGRWFIEEIRIQ” returned a protease stability score of 1.3.

As for “TEDKEIAIRVTEHFIEAIYTGDEDRVRDLLDPEARLDVNGVELHGMRWFTFWLRQIRIHNMYIRHTEVQGDKVHVDMEQDVEFNGKRHELKSHFVLLKVNGRWTVKHYNVR”, the protease stability score was found to be 2.28.

As for “TEDKEKDDEVAHLFLNAVRTGDEELFQDLVDPETRLNVNGQEIHGRENVFRHMRETWDKMGVDHVELKDRRHINGVLILHFEIRVGDKTIHVEYIIEKIDGRWILTKVHIR”, the protease stability score is 0.569.

The sequence “TEDLEKVHTFLNLLLHSRLTGDEDSLHRMADPNMRVDQGEYQHHGRELFIEWTKRELEHLRLRHYHLEDIDIYNGVVKVTGKMDVEVNGRRHHVDVTLIVLKINGRWHLKSVHIS” displayed a protease stability score of 1.24.

For “TEDLHQYHEFLEEMIRWLRTGDWEAKHRNADPNVRLDFNGVDFHGMEIVAKIEMELRRRVDHIELEVKRSEIVNGRVHIDQVYHIEYNGRSYEVKSELIVKKVNGKWLIKEERVR”, the protease stability score was 0.322.

Regarding “TEDMEVMRRILELFIELVTTGDWEILRELLDPNVRIEIGDKQLHGRELVSNSLLLLGVDHIRVKDMKIQGEKLHIETENEINGVKLNTHILLLKINGRWLIKDLSVK”, the protease stability score amounted to 1.29.

For the sequence “TEDQEEAKRLLHHLAHNWFTGNEHILTRLADPNTRMNVNGRDYHGREIMHETVREILERLGIDHFEIKDMRFIVQGEKIHIHIHIRSTVNGQEEDFRLSISVHKIDGRWVIKEINLHFI”, the protease stability score turned out to be 0.511.

For “TEDQEQAEEHFREEIHHWRTGDEDQLRRLMDPNTRIEIGDKVLHGREHAELFLRRYKGLKIDRFEIRHRDHQGDYVILHTHFRGEVNGRDFENTVQLVVLKVDGRWFLKYIRVE”, the protease stability score turned out to be 1.64.

“TEDQEQLEQHIRELTHNWHTGDFDSLKKLFDPNVKLEIGDKEYHGRELAEKYIRDELRHLRIEHVENREWRLINGVIILHTRLVGNIDGQRVERDTEIYVKKFDGQWIIEIFRVH” yielded a protease stability score of 1.34.

In turn, “TEDREEVRRWWKDLLRSLHTGDEEVLRKQIDPNVKLVDEDERSVGMDRFVKFMHFINREIRIERIHIKRLRLIDGQLEADTRMHVNIDGRIEETDVHILAKKVDGKWLLTSVILD” showed a protease stability score of 1.48.

“TEDREIAKKFAEHMIHNYETGDFERILELLDPHTKIHVNGKDMHGREHWLHHLKKWGVDRIESEIRHVEIQGDKVKVDTELHYGDKTIERTVIFEKFDGRWVLREVRVD” displayed a protease stability score of 1.12.

The sequence “TEDRESILKLITMEQRNLRTGDEERWHELADPDYRLEFENREIHGREHAIRFMIETTLKLGVDHVELIINDVKWQGDKLHIDGHLRLEIGDKIIEERVIIINLKVNGRWLLRRKHVG” returned a protease stability score of 1.03.

On to “TEDSKLITDVLRHFTEAFITGDEHTLKRMADPHVRTEWDGVHLHGWEKFLKFIVTEHRKLGIDHMRVEVDHIESYGDKIHVEGTLVVIINGQEISRHVELVMVKIDGVWLFKSRHFR”, for which the protease stability score is 0.706.

The sequence “TEDVRHADEMIERVIESLTTGDEESYKRLLDPDVRVLIGDKRIHGMEAVLEWFRRIDHVQIHDVRVREVEIVNGRADVRMEFDLTHRINGVEHRFKFESEMLLVKIDGQWRLHSDKRI” came in with a protease stability score of 1.57.

In turn, “TEDWELMKKAMEDLSRDLSTGDFERINRMLDPHTKLVVGDKEHHGMHAWEIFVKRIDHERSVEVRHFRIIGDKIDIDGTLHAEYGEKRITLKVHIIDSKVNGKWVIEVLSFK” had a protease stability score of 1.4.

Regarding “TEEDEELKRWFDHFLESMITGDEHQNTELFDPNVLIHINGRQLHGRESAKIFIKEIRYEEIEVTHVRKYGNYVISSGVVRVRINGQESTIKTEVIVLKVNGQWLIRFVRFE”, the protease stability score was determined as 2.26.

Take “TEEDEEVEWVLKVLKETNDTGDEHTFRKLMDPRTKFHINGKDYIGMEAWREQVEKLGFKHIHDIKIEDMRVYNGRIQLHGRVDMVQGDKKIDMHVILIAVKVNGRWLLRFDIVE”: the protease stability score amounted to 1.38.

Sequence “TEEDEFWERYVQLLRELWITGDEETWKNLADPNTRLHINGVTAHGREEVEHVYKKILEDLGIDVRHIHRIDVQGDKMRIDSRNNIDGQIFRLHIENHFVNGRLQFIRMEVH” had a protease stability score of 1.25.

For “TEEDEHLYEYLESLFHHQRTGDEDKYERLLDPHARLDINGVDVIGMERVVHQWHEHWRRYKNMRIHFRHYEIKVFNGRAHLRIEGHMEYGDKKSEVELLFIAIKINGRWVVKQVHITVH”, the protease stability score amounted to 1.82.

Sequence “TEEDEHSRVAIEQTIRTLETGDEKEWERELDPHVRINIGEKHFHGRERAVELWLRLGVKHFRIKEVEHQGNKIIVHGSINVNGVKIEMYSIAEKIDGKWHLTHMHIP” yielded a protease stability score of 1.53.

In the case of “TEEDELAHRFWELIRTSFLTGDEESLERLADPNVRLEIGDKELHGREQFSHIMREFVERFKNLRVRVEEERVVGDKAESIEDFHFNGQNLKVLTIVKKINGKWVIKSIVIKIE”, the protease stability score came to 1.7.

Consider “TEEDELLDKLAEIFSKVLKTGDFDELLSLFDPHTRLEVRQGDKEFHYHGREEVVRFWRHVRNRIDHSQLELHDVKSVNGVANSDSEVILRVNGKEIRIHHILLFVVINGRSKMVVIEFR”, for which the protease stability score worked out at 1.68.

Sequence “TEEDELRELAIRLLEESLRTGNEQDLRELFDPNTRIVIGNKDFHGMEHWVRWVFEWRKEHGIKMRIEVKRVDVQGDKIRIDTVLHIDVGDKHHVTRTELHAKKVDGKWFSTELRIN” had a protease stability score of 2.23.

Turning to “TEEDELYRLLREHLKHVIETGDEELTQKNLDPHVKVELQIGDKKFTLHGRDQFTQWWKELHEKVKNIRFEDRHVQFFDGVAVVHVEINVNGRHIELIVIAEKVNGQWRIKHVEIRFL”, the protease stability score was found to be 1.53.

Regarding “TEEDEMVHRQTEILEESIVTGDWKTLRNFVDPNMRLEIGDKTVHGWHAMSHILRRIDHINSVELHKVEVYGEKVHVDTIVDGIVDGRRTHLRTHIIALKFNGRWILTSNKIE”, the protease stability score is 1.03.
